Measured values as given in patent US20260185163A1, “MEN1 MUTATIONS AND USES THEREOF” (DANA-FARBER CANCER INSTITUTE, INC., priority 2022, published 2026).

Columns and labels:
[1] = target: StrepII-Avi-TEV-Menin (wild-type human Menin, recombinant, E. coli) (UniProt O00255); experiment: fluorescence polarization
[2] = target: StrepII-Avi-TEV-Menin M327I (recombinant mutant human Menin) (UniProt O00255); experiment: fluorescence polarization
[3] = target: StrepII-Avi-TEV-Menin T349M (recombinant mutant human Menin) (UniProt O00255); experiment: fluorescence polarization
M327I = M327I (UniProt O00255); experiment: fluorescence polarization competition
WT = WT (UniProt O00255); experiment: fluorescence polarization competition
T349M = T349M (UniProt O00255); experiment: fluorescence polarization competition

Kd [1] | Kd [2] | Kd [3] | IC50 (M327I) | Ki (M327I) | IC50 (WT) | Ki (WT) | IC50 (T349M) | Ki (T349M) | Substance
1.78 nM | 2.56 nM | 3.7 nM | – | – | – | – | – | – | N-terminally FITC-labelled MLL2(15-48) peptide
– | – | – | 20.3 nM | 7.78 nM | 26.1 nM | 9.17 nM | 101 nM | 51.4 nM | MLL1 Peptide
